Among the data in paper doi:10.1101/608273 are Kd values, retold here.

This assay concerns the target dNxf2^UBA (recombinant) (Drosophila) (UniProt Q9VV73). As to the kind of experiment: ITC.
Chain of UniProt Q9VV73 (Q9VV73 whole entry): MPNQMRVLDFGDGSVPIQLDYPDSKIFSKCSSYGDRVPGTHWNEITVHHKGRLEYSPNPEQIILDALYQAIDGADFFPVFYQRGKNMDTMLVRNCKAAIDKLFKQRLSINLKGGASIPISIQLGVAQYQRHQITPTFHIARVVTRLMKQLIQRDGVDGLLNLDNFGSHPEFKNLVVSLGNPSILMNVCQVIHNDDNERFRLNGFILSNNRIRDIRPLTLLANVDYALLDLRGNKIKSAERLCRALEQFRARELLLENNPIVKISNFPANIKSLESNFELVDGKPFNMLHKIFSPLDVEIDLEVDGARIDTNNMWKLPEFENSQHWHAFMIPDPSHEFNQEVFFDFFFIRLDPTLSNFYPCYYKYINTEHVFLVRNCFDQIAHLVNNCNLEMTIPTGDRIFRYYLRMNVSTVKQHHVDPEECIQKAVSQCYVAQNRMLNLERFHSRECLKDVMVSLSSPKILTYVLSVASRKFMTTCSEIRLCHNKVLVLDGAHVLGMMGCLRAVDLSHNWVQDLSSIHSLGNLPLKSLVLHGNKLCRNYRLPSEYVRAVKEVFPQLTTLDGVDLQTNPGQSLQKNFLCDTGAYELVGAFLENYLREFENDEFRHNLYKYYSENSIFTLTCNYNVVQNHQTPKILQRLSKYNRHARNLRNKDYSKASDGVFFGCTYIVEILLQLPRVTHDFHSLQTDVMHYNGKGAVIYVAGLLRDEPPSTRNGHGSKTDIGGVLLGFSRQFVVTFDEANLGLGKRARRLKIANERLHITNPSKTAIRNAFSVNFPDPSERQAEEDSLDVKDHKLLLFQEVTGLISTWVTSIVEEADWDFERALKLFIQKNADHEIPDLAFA

For “Purified Panx^NIR (from UniProt Q9W2H9 315-343) (domain or fragment)”, the Kd was determined as 3.2 µM.

In general, Kd refers to a measure of binding affinity in units of concentration.
